For orientation: Kd means the concentration at which binding is half-saturated. Higher therefore signals weaker binding.

Series [1] concerns FLAG-ATRXΔRBR-HA (Homo sapiens). Kind of series: pull-down qPCR. The settings on record: 2 ug protein; Pull-down: 2 mM MgCl2, 100 U/ml RNase inhibitor, 0.1 mg/ml yeast tRNA, 0.05% BSA, 0.2% NP-40, 4 °C overnight, washes 150 and 15 mM NaCl; EMSA: 50 mM Tris pH …. On the technique in general: In EMSA bound probe runs differently from free probe, usually more slowly.
Series [2] concerns GST-RBR (ATRX RNA binding region) (Homo sapiens). Kind of series: pull-down qPCR. As to conditions: 2 ug protein; Pull-down: 2 mM MgCl2, 100 U/ml RNase inhibitor, 0.1 mg/ml yeast tRNA, 0.05% BSA, 0.2% NP-40, 4 °C overnight, washes 150 and 15 mM NaCl; EMSA: 50 mM Tris pH ….
The subject of series [3] is FLAG-ATRX-HA (full-length hATRX) (Homo sapiens). Kind of series: pull-down qPCR. The settings on record: 2 ug protein; Pull-down: 2 mM MgCl2, 100 U/ml RNase inhibitor, 0.1 mg/ml yeast tRNA, 0.05% BSA, 0.2% NP-40, 4 °C overnight, washes 150 and 15 mM NaCl; EMSA: 50 mM Tris pH ….
The test system of series [4] is GST-RBR (ATRX RNA binding region) (Homo sapiens). In words: pull-down RT-qPCR. As to conditions: Pull-down: 2 mM MgCl2, 100 U/ml RNase inhibitor, 0.1 mg/ml yeast tRNA, 0.05% BSA, 0.2% NP-40, 4 °C overnight, washes 150 and 15 mM NaCl, EMSA: 50 mM Tris pH ….
Series [5] has as its system FLAG-ATRX-HA (full-length hATRX) (Homo sapiens). In words: pull-down RT-qPCR. The settings on record: 2 ug protein, Pull-down: 2 mM MgCl2, 100 U/ml RNase inhibitor, 0.1 mg/ml yeast tRNA, 0.05% BSA, 0.2% NP-40, 4 °C overnight, washes 150 and 15 mM NaCl, EMSA: 50 mM Tris pH ….
Series [6] has as its system GST-RBR (ATRX RNA binding region) (Homo sapiens). In words: competition pull-down RT-qPCR. The settings on record: Pull-down: 2 mM MgCl2, 100 U/ml RNase inhibitor, 0.1 mg/ml yeast tRNA, 0.05% BSA, 0.2% NP-40, 4 °C overnight.
Series [7] concerns FLAG-ATRX-HA (full-length hATRX) (Homo sapiens). Kind of series: EMSA. The settings on record: 5 mM Mg2+, yeast tRNA competitor; citation to ref 11 stands next to the value; Pull-down: 2 mM MgCl2, 100 U/ml RNase inhibitor, 0.1 mg/ml yeast tRNA, 0.05% BSA, 0.2% NP-40, 4 °C overnight, washes 150 and 15 mM NaCl; EMSA: 50 mM Tris pH ….
Series [8] has as its system FLAG-ATRXΔRBR-HA (Homo sapiens). In words: pull-down RT-qPCR. The settings on record: 2 ug protein, yeast tRNA; Pull-down: 2 mM MgCl2, 100 U/ml RNase inhibitor, 0.1 mg/ml yeast tRNA, 0.05% BSA, 0.2% NP-40, 4 °C overnight, washes 150 and 15 mM NaCl; EMSA: 50 mM Tris pH ….
The subject of series [9] is FLAG-ATRX helicase domain (F6). Kind of series: pull-down RT-qPCR. The settings on record: 25 pmol protein; binds, less than GST-RBR; Pull-down: 2 mM MgCl2, 100 U/ml RNase inhibitor, 0.1 mg/ml yeast tRNA, 0.05% BSA, 0.2% NP-40, 4 °C overnight, washes 150 and 15 mM NaCl; EMSA: 50 mM Tris pH ….

As for MBP DNA, 300 bp, the binding signal in series [1] amounted to 0.185 % input; in [2] it was 0.000184 % input; in series [3], 0.197 % input.

With MBP RNA, 300 nt, the binding signal in [4] (0.5 ug protein) came to 0.142 % input; in [4] (1 ug protein), 0.189 % input; in series [4] (2 ug protein, yeast tRNA) it was 0.974 % input; in [4] (2 ug protein) it was 0.183 % input; in series [4] (3 ug protein), 0.22 % input; in series [5], 1.28 % input. The substance further registered a binding signal in series [6] (mixed with 5 ug Repeat A RNA, washes 150 and 15 mM NaCl, EMSA: 50 mM Tris pH …) of 0.0666 % input.

As for Xist Repeat A DNA, 435 bp, the binding signal was 0.23 % input in [1], 0.002 % input in series [2] and 0.478 % input in series [3].

Regarding Xist Repeat A RNA, 192-nt fragment, the Kd in series [7] was determined as 17.9 nM.

Regarding Xist Repeat A RNA, 435 nt, the binding signal in series [8] came out at 3.43 % input; in series [4] (25 pmol protein), 1.8 % input; in series [4] (0.5 ug protein), 0.342 % input; in [4] (1 ug protein), 1.99 % input; in series [4] (2 ug protein, yeast tRNA) it was 3.08 % input; in series [4] (2 ug protein) it was 2.92 % input. In addition, the binding signal in series [4] (3 ug protein) stood at 9.29 % input; in [9], 0.741 % input; in series [5] (yeast tRNA), 8 % input; in [6] (mixed with 5 ug MBP RNA, washes 150 and 15 mM …, EMSA: 50 mM Tris pH 8.0), 3.04 % input.

Source of the values: PMC7203109.
